The assay concerns the target Kit, the receptor for SCF (UniProt P10721). The assay can be described thus: cell-based or functional assay.
Chain of Kit, the receptor for SCF (P10721 26-976 limits assumed): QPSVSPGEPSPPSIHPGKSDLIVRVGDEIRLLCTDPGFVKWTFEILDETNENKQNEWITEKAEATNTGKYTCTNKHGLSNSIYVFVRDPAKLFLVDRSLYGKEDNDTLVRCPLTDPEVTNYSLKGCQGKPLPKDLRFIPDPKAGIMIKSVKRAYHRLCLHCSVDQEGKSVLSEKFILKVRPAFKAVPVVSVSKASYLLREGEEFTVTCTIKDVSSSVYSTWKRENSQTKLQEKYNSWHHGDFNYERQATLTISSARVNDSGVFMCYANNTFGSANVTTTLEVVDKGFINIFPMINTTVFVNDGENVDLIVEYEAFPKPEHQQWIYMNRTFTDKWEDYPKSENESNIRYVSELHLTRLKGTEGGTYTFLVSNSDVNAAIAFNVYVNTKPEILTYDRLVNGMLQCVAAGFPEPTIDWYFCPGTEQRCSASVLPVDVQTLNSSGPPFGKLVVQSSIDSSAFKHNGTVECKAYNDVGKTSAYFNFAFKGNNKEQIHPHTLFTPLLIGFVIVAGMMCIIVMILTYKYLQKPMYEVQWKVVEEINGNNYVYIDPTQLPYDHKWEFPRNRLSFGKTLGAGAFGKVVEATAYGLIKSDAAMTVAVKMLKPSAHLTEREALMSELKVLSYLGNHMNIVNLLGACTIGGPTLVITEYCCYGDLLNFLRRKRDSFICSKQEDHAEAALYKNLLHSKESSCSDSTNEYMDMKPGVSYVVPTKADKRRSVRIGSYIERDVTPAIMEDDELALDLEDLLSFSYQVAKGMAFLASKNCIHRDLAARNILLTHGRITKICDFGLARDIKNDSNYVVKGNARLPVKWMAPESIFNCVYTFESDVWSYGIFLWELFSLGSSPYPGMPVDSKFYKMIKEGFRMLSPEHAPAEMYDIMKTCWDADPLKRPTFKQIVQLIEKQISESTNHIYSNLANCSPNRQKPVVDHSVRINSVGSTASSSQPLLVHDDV
Regarding “SCF(K62C) (from UniProt P21583 26-166) (ligand)”, the Biological Activity (Approximate, compared to wild type SCF) (fold lower than wild type SCF) came to 7.
The substance “SCF(R117A, I118A) (from UniProt P21583 26-166) (ligand)” came in with a Biological Activity (Approximate, compared to wild type SCF) (fold lower than wild type SCF) of 10.
The substance “SCF(D25C) (from UniProt P21583 26-166) (ligand)” showed a Biological Activity (Approximate, compared to wild type SCF) (fold lower than wild type SCF) of 100.
For “SCF(K78N, N81K) (from UniProt P21583 26-166) (ligand)”, the Biological Activity (Approximate, compared to wild type SCF) (fold lower than wild type SCF) came out at 3.

Source of the values: patent publication US6904369.
